In article PMC2931692:

Biological target: soluble HA of A/Aichi/2/68 (H3N2) modified at the C-terminus with the GCN4pII trimerization repeat (influenza A virus A/Aichi/2/68 (H3N2) | Saccharomyces cerevisiae) (UniProt P03437)
Assay: cross-linking

soluble HA of A/Aichi/2/68 (H3N2) modified at the C-terminus with the GCN4pII trimerization repeat (from UniProt P03437 17-528)
stoichiometry N: 3
